{"source": "patent US20170204158A1", "about": "(Regeneron, published 2017)", "key": {"[1]": {"target": "T1, human IL-33 (R&D Systems, # 3625-IL-010/CF) (human, UniProt O95760 112-270, biotinylated in the blocking ELISA of Example 3 (sites not given))", "T1 sequence (looked up)": "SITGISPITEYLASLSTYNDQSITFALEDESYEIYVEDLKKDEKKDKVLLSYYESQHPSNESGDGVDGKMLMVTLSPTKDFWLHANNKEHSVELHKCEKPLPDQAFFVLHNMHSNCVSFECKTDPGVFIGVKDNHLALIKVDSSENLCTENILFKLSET", "assay": "cell-based or functional assay"}, "[2]": {"target": "T1, human IL-33 (R&D Systems, # …)", "assay": "SPR (Biacore T-200), 25 C; Fc fusion captured by anti-Fc antibody, IL-33 injected", "description": "(§1) The Biacore sensor surface was first derivatized by amine coupling a polyclonal rabbit anti-mouse antibody (GE, # BR-1008-38) or with a monoclonal mouse anti-human Fc antibody (GE, # BR-1008-39) to capture IL-33 Trap and receptor proteins with a C-terminal mouse IgG2a Fc tag or a C-terminal human IgG1 Fc tag, respectively. Kinetic experiments were carried out in 0.01 M HEPES pH 7.4, 0.15 M NaCl, 3 mM EDTA, and 0.005% v/v Surfactant Tween-20 (HBST running buffer). Different concentrations of human IL-33, mouse IL-33 or MfIL-33-6His prepared in HBST running buffer (ranging from 60 nM to 27.4 pM, 3-fold dilutions, for Trap proteins and ranging from 60 nM to 0.25 nM, 3-fold dilutions, for ST2 receptor proteins) were injected over the captured IL-33 Trap and receptor protein surfaces at a flow rate of 50 μL/minute. Association of different IL-33 proteins to the different capture surfaces was monitored for 7 minutes for Trap proteins or 4 minutes for ST2 receptor proteins and their dissociation in HBST running buffer was monitored for 14 minutes for Trap proteins or 8 minutes for ST2 receptor proteins. Kinetic association (ka) and dissociation (kd) rate constants were determined by fitting the real-time binding sensorgrams to a 1:1 binding model using Scrubber 2.0c curve-fitting software. Binding dissociation equilibrium constants (KD) and dissociative half-lives (t½) were calculated from the kinetic rate constants as: […]"}, "[3]": {"target": "T1, human IL-33 (R&D Systems, # …)", "assay": "SPR (Biacore T-200), 37 C; Fc fusion captured by anti-Fc antibody, IL-33 injected", "description": "as §1"}, "[4]": {"target": "T2, mouse IL-33 (R&D Systems, # 3626-ML-010/CF) (mouse, UniProt Q8BVZ5 109-266)", "T2 construct": "Commercial protein; also called mIL-33; mIL33", "T2 sequence (looked up)": "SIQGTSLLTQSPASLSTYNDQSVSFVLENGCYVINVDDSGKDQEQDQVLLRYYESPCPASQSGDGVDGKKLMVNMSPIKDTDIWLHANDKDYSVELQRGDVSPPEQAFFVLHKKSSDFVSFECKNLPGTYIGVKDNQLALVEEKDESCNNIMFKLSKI", "assay": "SPR (Biacore T-200), 37 C; Fc fusion captured by anti-Fc antibody, mouse IL-33 injected", "description": "as §1"}, "[5]": {"target": "T3, monkey IL-33 expressed with C-terminal hexahistidine tag (MfIL-33-6His) (cynomolgus monkey (M. fascicularis))", "T3 construct": "also called M. fascicularis IL-33-6His; cynomolgus monkey IL-33", "T3 chain": "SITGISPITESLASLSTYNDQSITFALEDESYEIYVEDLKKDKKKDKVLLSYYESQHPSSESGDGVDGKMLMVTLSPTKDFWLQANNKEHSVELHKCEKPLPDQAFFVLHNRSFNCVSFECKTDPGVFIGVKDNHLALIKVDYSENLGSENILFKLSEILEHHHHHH", "assay": "SPR (Biacore T-200), 25 C; Fc fusion captured by anti-Fc antibody, MfIL-33-6His injected", "description": "as §1"}, "[6]": {"target": "T1, human IL-33 (R&D Systems, # …)", "assay": "competition ELISA; antagonist pre-mixed with 20 pM biotin-hIL-33, binding to plate-coated human ST2-Fc", "description": "The ability of exemplary IL-33 antagonists of the invention to block human IL-33 (hIL-33) binding to the human ST2 receptor was measured using a competition sandwich ELISA. A portion of human ST2 protein ecto domain that was expressed with a C-terminal mouse Fc tag (SEQ ID NO:2) was coated at a concentration of 1 μg/mL in PBS buffer on a 96-well microtiter plate overnight at 4° C. […] Biotinylated hIL-33 protein (R&D systems, #3625-IL/CF) (biot-hIL-33) was added to achieve a constant final concentration of 20 pM to serial dilutions of IL-33 antagonists ranging from 0 to 100 nM. The mixture was incubated for 1 hour at room temperature (RT) before transfer to the hST2-hFc coated microtiter plates. After incubation for 1 hour at RT, the wells were then washed, and plate-bound biot-hIL-33 was detected with HRP-conjugated streptavidin (Thermo Scientific, # N200). All samples were developed with a TMB solution (BD biosciences, # 51-2607KC) to produce a colorimetric reaction and then quenched by acidification with 1M sulfuric acid before measuring absorbance at 450 nm on a Victor X5 plate reader (PerkinElmer). Data analysis was performed using a sigmoidal dose-response model within Prism™ software. […] Maximum blocking values represent the ability of the antagonists to block IL-33 binding relative to baseline. The absorbance measured at the constant amount of hIL-33 on the dose curve was defined as 0% blocking and the absorbance with no added IL-33 was defined as 100% blocking. The absorbance values of the wells containing the highest concentration tested for each antagonist were used to determine the maximum blocking percent."}}, "data": [{"binder": "hST2-hIL1RAcP-mFc (Fc fusion, also called third IL-33 antagonist; human IL-33 Trap) KFSKQSWGLENEALIVRCPRQGKPSYTVDWYYSQTNKSIPTQERNRVFASGQLLKFLPAAVADSGIYTCIVRSPTFNRTGYANVTIYKKQSDCNVPDYLMYSTVSGSEKNSKIYCPTIDLYNWTAPLEWFKNCQALQGSRYRAHKSFLVIDNVMTEDAGDYTCKFIHNENGANYSVTATRSFTVKDEQGFSLFPVIGAPAQNEIKEVEIGKNANLTCSACFGKGTQFLAAVLWQLNGTKITDFGEPRIQQEEGQNQSFSNGLACLDMVLRIADVKEEDLLLQYDCLALNLHGLRRHTVRLSRKNPIDHHSSERCDDWGLDTMRQIQVFEDEPARIKCPLFEHFLKFNYSTAHSAGLTLIWYWTRQDRDLEEPINFRLPENRISKEKDVLWFRPTLLNDTGNYTCMLRNTTYCSKVAFPLEVVQKDSCFNSPMKLPVHKLYIEYGIQRITCPNVDGYFPSSVKPTITWYMGCYKIQNFNNVIPEGMNLSFLIALISNNGNYTCVVTYPENGRTFHLTRTLTVKVVGSPKNAVPPVIHSPNDHVVYEKEPGEELLIPCTVYFSFLMDSRNEVWWTIDGKKPDDITIDVTINESISHSRTEDETRTQILSIKKVTSEDLKRSYVCHARSAKGEVAKAAKVKQKVPAPRYTVESGEPRGPTIKPCPPCKCPAPNLLGGPSVFIFPPKIKDVLMISLSPIVTCVVVDVSEDDPDVQISWFVNNVEVHTAQTQTHREDYNSTLRVVSALPIQHQDWMSGKEFKCKVNNKDLPAPIERTISKPKGSVRAPQVYVLPPPEEEMTKKQVTLTCMVTDFMPEDIYVEWTNNGKTELNYKNTEPVLDSDGSYFMYSKLRVEKKNWVERNSYSCSVVHEGLHNHHTTKSFSRTPGK", "values": [{"measurement": "IC50 (M), blocking of IL-33 induced activation of human basophils (CD203c), donor 655675", "setting": "[1]", "result": "1.9e-11", "unit": "M"}, {"measurement": "IC50 (M), blocking of IL-33 induced activation of human basophils (CD203c), donor 655676", "setting": "[1]", "result": "1.51e-11", "unit": "M"}, {"measurement": "IC50 (M), blocking of IL-33 induced activation of human basophils (CD203c), donor 655685", "setting": "[1]", "result": "2.3e-11", "unit": "M"}, {"measurement": "IC50 (M), blocking of IL-33 induced activation of human basophils (CD203c), donor 655686", "setting": "[1]", "result": "2.09e-11", "unit": "M"}, {"measurement": "IC50 (M), blocking of IL-33 induced activation of human basophils (CD203c), donor 698846", "setting": "[1]", "result": "3.6e-11", "unit": "M"}, {"measurement": "IC50 (M), blocking of IL-33 induced activation of human basophils (CD203c), donor 698847", "setting": "[1]", "result": "1.11e-11", "unit": "M"}, {"measurement": "60 nM Human IL-33 Bound (RU)", "setting": "[2]", "result": 28, "unit": "RU"}, {"measurement": "Kd", "setting": "[2]", "result": 0.00329, "unit": "nM"}, {"measurement": "koff", "setting": "[2]", "result": "6.32e-05", "unit": "s⁻¹"}, {"measurement": "kon", "setting": "[2]", "result": "1.92e+07", "unit": "M⁻¹ s⁻¹"}, {"measurement": "t1/2", "setting": "[2]", "result": 3.05, "unit": "h"}, {"measurement": "60 nM Human IL-33 Bound (RU)", "setting": "[3]", "result": 28, "unit": "RU"}, {"measurement": "Kd", "setting": "[3]", "result": 0.00111, "unit": "nM"}, {"measurement": "koff", "setting": "[3]", "result": "2.02e-05", "unit": "s⁻¹"}, {"measurement": "kon", "setting": "[3]", "result": "1.82e+07", "unit": "M⁻¹ s⁻¹"}, {"measurement": "t1/2", "setting": "[3]", "result": 9.55, "unit": "h"}, {"measurement": "60 nM Mouse IL-33 Bound (RU)", "setting": "[4]", "result": 21, "unit": "RU"}, {"measurement": "Kd", "setting": "[4]", "result": 0.0933, "unit": "nM"}, {"measurement": "koff", "setting": "[4]", "result": 0.000317, "unit": "s⁻¹"}, {"measurement": "kon", "setting": "[4]", "result": "3.39e+06", "unit": "M⁻¹ s⁻¹"}, {"measurement": "t1/2", "setting": "[4]", "result": 0.6, "unit": "h"}, {"measurement": "60 nM Monkey IL-33 Bound (RU)", "setting": "[5]", "result": 28, "unit": "RU"}, {"measurement": "Kd", "setting": "[5]", "result": 0.00313, "unit": "nM"}, {"measurement": "koff", "setting": "[5]", "result": "4.09e-05", "unit": "s⁻¹"}, {"measurement": "kon", "setting": "[5]", "result": "1.31e+07", "unit": "M⁻¹ s⁻¹"}, {"measurement": "t1/2", "setting": "[5]", "result": 4.7, "unit": "h"}, {"measurement": "IC50", "setting": "[6]", "result": 0.00634, "unit": "nM"}]}]}
